In patent publication US20070286806A1, “Methods and Compositions for Modulating a Steroid Receptor” (Mount Sinai Hospital, priority 2004, published 2007):

T1: progesterone receptor isoform B (PRB), full length (Homo sapiens (Human), UniProt P06401 1-933)
T1 construct: From expression vector pSG5 PRB; expressed in 293T or SHM cells, or translated in rabbit reticulocyte lysate with ^35S methionine for the GST pulldown; also called ^35S-labeled PRB; full length PR
T1 sequence: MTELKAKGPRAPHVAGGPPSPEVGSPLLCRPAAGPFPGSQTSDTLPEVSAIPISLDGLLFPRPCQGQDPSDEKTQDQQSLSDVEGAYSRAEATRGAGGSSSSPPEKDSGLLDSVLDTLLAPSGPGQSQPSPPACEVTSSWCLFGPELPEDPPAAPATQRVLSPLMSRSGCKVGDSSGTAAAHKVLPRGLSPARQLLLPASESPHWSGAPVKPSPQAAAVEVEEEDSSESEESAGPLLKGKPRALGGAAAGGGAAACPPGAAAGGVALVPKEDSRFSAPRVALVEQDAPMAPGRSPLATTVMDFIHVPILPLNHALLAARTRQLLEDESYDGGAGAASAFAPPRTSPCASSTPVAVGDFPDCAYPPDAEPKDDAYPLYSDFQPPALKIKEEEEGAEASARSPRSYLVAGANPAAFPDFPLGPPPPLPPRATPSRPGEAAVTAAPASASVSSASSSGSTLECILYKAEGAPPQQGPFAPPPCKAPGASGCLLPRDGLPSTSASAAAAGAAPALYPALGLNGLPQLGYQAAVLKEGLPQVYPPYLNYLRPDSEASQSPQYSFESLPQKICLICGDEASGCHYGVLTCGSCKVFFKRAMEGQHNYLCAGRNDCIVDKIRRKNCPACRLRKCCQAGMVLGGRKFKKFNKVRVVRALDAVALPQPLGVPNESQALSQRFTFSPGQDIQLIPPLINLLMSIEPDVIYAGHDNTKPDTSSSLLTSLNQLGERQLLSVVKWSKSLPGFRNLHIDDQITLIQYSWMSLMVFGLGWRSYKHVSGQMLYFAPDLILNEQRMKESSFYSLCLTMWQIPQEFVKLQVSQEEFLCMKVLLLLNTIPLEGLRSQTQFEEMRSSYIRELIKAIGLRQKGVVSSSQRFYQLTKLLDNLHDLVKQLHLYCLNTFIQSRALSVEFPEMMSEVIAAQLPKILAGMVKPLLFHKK


What was measured:
[1] = biological target: T1, progesterone receptor isoform B (PRB), …; assay: summary of Example 1; in vivo and in vitro protein interaction assays
[2] = test system: G5-Luc reporter; assay: Mammalian two-hybrid system with G5-Luc reporter; format: cell-based, Syrian hamster; settings: SHM cells
Experimental: FIG. 2. PSF interacts with PR in vivo. (A) 293T cells were transient transfected with an expression vector for PRB and/or His-PSF for 18 hours, followed by lysis in NETN buffer with NaCl at 150 mM. Whole cell lysate (WCL) was incubated with PR antibody (C-20, Santa Cruz) or anti-His tag antibody (H-15, Santa Cruz), using protein A/G-sepharose as an absorbent. Resins were washed with NETN containing 100 mM NaCl, and bound proteins were detected by western blotting with antibodies to PR (C-20) or His-PSF (H-15). (B) Western blots of PSF (left) and PR (right) in immunoprecipitates of control mouse IgG or mouse anti-PR (AB52) or anti-PSF (B92) antibody from extracts of T47D cells. […] Luciferase activity was measured and normalized by β-galatosidase activity. […]
For immunoprecipitation of the endogenous PR and PSF, T47D cells cultured in 150 mm dishes were lysed in 800 μl NETN buffer containing 150 mM NaCl plus protease inhibitor cocktail. […] Gels were treated with Enhancer (NEN, Boston, US) dried and analyzed by autoradiography. • Cell culture and transient transfection: SHM cells and 293T cells were maintained in DMEM plus 5% FCS (Sigma) as described before (22). […] Luciferase activity was determined by using the luciferin reagent (Promega) according to manufacture's protocol. […]

Molecule | binding result [1] | luciferase activity on co-transfection with VP16-PRA and VP16-PRB ([2]; G5-Luc, ligand-independent) | reduction in luciferase activity compared to pM empty vector ([2]; co-transfected with G5-Luc) [%]
His-PSF (6xHis-tagged full length human PSF, amino acid 1-707) (other, Expressed in 293T or SHM cells (co-immunoprecipitation, reporter assays) or translated in rabbit reticulocyte lysate with ^35S methionine (GST pulldown); 1 only as 'e.g.' of wild type PSF; also called His tagged PSF; His tagged PSF1-707; not shown: N-terminal 6xHis tag of vector pcDNA3.1 6xHis) MSRDRFRSRGGGGGGFHRRGGGGGRGGLHDFRSPPPGMGLNQNRGPMGPGPGQSGPKPPIPPPPPHQQQQQPPPQQPPPQQPPPHQPPPHPQPHQQQQPPPPPQDSSKPVVAQGPGPAPGVGSAPPASSSAPPATPPTSGAPPGSGPGPTPTPPPAVTSAPPGAPPPTPPSSGVPTTPPQAGGPPPPPAAVPGPGPGPKQGPGPGGPKGGKMPGGPKPGGGPGLSTPGGHPKPPHRGGGEPRGGRQHHPPYHQQHHQGPPPGGPGGRSEEKISDSEGFKANLSLLRRPGEKTYTQRCRLFVGNLPADITEDEFKRLFAKYGEPGEVFINKGKGFGFIKLESRALAEIAKAELDDTPMRGRQLRVRFATHAAALSVRNLSPYVSNELLEEAFSQFGPIERAVVIVDDRGRSTGKGIVEFASKPAARKAFERCSEGVFLLTTTPRPVIVEPLEQLDDEDGLPEKLAQKNPMYQKERETPPRFAQHGTFEYEYSQRWKSLDEMEKQQREQVEKNMKDAKDKLESEMEDAYHEHQANLLRQDLMRRQEELRRMEELHNQEMQKRKEMQLRQEEERRRREEEMMIRQREMEEQMRRQREESYSRMGYMDPRERDMRMGGGGAMNMGDPYGSGGQKFPPLGGGGGIGYEANPGVPPATMSGSMMGSDMRTERFGQGGAGPVGGQGPRGMGPGTPAGYGRGREEYEGPNKKPRF | binds |  | 
pM-PSF: PSF fused to C-terminus of Gal4-DBD in pM vector (protein) MKLLSSIEQACDICRLKKLKCSKEKPKCAKCLKNNWECRYSPKTKRSPLTRAHLTEVESRLERLEQLFLLIFPREDLDMILKMDSLQDIKALLTGLFVQDNVNKDAVTDRLASVETDMPLTLRQHRISATSSSEESSNKGQRQLTVSMSRDRFRSRGGGGGGFHRRGGGGGRGGLHDFRSPPPGMGLNQNRGPMGPGPGQSGPKPPIPPPPPHQQQQQPPPQQPPPQQPPPHQPPPHPQPHQQQQPPPPPQDSSKPVVAQGPGPAPGVGSAPPASSSAPPATPPTSGAPPGSGPGPTPTPPPAVTSAPPGAPPPTPPSSGVPTTPPQAGGPPPPPAAVPGPGPGPKQGPGPGGPKGGKMPGGPKPGGGPGLSTPGGHPKPPHRGGGEPRGGRQHHPPYHQQHHQGPPPGGPGGRSEEKISDSEGFKANLSLLRRPGEKTYTQRCRLFVGNLPADITEDEFKRLFAKYGEPGEVFINKGKGFGFIKLESRALAEIAKAELDDTPMRGRQLRVRFATHAAALSVRNLSPYVSNELLEEAFSQFGPIERAVVIVDDRGRSTGKGIVEFASKPAARKAFERCSEGVFLLTTTPRPVIVEPLEQLDDEDGLPEKLAQKNPMYQKERETPPRFAQHGTFEYEYSQRWKSLDEMEKQQREQVEKNMKDAKDKLESEMEDAYHEHQANLLRQDLMRRQEELRRMEELHNQEMQKRKEMQLRQEEERRRREEEMMIRQREMEEQMRRQREESYSRMGYMDPRERDMRMGGGGAMNMGDPYGSGGQKFPPLGGGGGIGYEANPGVPPATMSGSMMGSDMRTERFGQGGAGPVGGQGPRGMGPGTPAGYGRGREEYEGPNKKPRF |  | dramatic increase of luciferase activity | 70
